From patent US20100291106A1 (Novartis, published 2010)
Read-outs that look alike come from different tables or passages of the source.

What was measured:
[1] = biological target: T1, human complement C3b protein (human, UniProt P01024 23-667; P01024 749-1663); assay: ELISA, C3b or C3 captured by anti-C3d antibody
T1 construct: Purified plasma C3b (Complement Technology, Quidel); Depending on the assay it was captured by an anti-C3d antibody, coated, biotinylated or coupled to beads; also called human C3b; huC3b
T1 sequence (P01024 23-667 P314L, chain 1 of 2): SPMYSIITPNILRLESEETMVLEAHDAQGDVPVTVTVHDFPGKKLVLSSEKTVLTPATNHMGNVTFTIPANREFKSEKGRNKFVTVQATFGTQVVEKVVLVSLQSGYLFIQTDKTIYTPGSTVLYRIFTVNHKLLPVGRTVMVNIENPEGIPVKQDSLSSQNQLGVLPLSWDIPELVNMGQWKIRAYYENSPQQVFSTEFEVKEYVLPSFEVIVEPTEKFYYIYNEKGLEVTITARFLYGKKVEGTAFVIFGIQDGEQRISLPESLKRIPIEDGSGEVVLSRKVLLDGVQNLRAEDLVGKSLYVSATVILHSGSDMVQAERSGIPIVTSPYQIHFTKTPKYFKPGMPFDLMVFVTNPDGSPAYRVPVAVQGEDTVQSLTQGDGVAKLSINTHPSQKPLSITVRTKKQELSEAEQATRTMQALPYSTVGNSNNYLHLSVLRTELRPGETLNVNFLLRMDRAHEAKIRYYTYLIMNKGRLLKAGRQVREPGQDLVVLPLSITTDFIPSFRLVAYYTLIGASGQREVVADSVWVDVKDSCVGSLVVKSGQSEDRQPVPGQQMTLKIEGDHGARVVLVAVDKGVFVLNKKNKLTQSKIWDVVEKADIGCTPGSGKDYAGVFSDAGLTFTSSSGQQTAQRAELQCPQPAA
T1 sequence (P01024 749-1663, chain 2 of 2): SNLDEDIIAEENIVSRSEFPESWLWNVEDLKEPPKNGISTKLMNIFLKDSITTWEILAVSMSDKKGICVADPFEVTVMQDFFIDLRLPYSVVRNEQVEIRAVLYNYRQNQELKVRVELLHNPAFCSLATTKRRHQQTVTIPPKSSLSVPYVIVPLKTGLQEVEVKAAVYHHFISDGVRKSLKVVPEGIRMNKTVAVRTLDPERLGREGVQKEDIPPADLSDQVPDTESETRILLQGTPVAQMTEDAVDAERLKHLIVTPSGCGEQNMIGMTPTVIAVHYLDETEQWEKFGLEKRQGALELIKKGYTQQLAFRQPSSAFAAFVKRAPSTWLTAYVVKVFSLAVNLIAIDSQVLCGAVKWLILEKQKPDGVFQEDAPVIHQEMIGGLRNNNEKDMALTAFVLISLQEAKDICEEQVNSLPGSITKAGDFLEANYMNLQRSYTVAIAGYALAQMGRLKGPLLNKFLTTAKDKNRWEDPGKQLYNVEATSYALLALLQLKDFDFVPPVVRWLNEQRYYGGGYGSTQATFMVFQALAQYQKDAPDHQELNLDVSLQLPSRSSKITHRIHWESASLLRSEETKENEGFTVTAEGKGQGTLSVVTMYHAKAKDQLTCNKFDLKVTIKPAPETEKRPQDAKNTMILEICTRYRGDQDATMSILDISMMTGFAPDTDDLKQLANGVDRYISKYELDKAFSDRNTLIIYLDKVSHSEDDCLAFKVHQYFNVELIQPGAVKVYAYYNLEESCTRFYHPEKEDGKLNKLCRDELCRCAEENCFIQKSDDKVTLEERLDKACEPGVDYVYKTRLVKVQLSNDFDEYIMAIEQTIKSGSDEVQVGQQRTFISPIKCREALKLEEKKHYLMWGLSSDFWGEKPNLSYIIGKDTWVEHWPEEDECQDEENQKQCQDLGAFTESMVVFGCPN

human C3d [2] = biological target: T2, human C3d (human, UniProt P01024 1002-1303); assay: C3d binding ELISA, IgG titrated from about 0.006 to 100 nM
T2 construct: domain: C3d
T2 sequence (P01024 1002-1303 limits assumed): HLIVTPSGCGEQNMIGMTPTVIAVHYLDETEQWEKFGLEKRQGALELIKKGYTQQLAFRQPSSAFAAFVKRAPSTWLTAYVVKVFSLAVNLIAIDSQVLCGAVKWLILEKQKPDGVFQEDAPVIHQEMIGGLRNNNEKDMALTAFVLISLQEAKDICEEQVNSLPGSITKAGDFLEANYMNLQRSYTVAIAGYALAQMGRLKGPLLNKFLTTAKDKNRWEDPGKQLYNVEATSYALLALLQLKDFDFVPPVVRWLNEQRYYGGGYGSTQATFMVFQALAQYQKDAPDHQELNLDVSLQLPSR

[3] = biological target: T1, human complement C3b protein; assay: AlphaScreen bead proximity, C3b-Acceptor beads pre-incubated with antibody, then C3b-Donor beads; inhibition of C3b-C3b dimer formation; unit from the axis [Antibody] nM; value lies above the highest point shown (about 800 nM) [D]
Experimental: (§1) In brief, purified C3b and fP were conjugated to unconjugated acceptor or donor beads (PerkinElmer) using AminoLink Reductant (Pierce) during a 48 h incubation at room temperature. Beads were quenched using Carboxymethoxylamine Hemihydrochloride (Aldrich), and purified by centrifugation at 13000 rpm and three washes with 0.1M TBST. Purified fB(D24G/N260D) and fH were biotinylated during a 30 min incubation with 20-fold molar excess of NHS-Chromogenic-biotin (Pierce) at room temperature, and purified using Zeba 0.5 ml desalting columns (Pierce).
(§2) For C3b-C3b and C3b-fP proximity, Fabs or IgGs respectively were pre-incubated with C3b-Acceptor beads (20 μg/ml) for 60 min at room temperature. C3b-Donor beads or fP-Donor beads (20 μg/ml) were then added, and the plate was incubated overnight at room temperature before reading. For C3b-fB and C3b-fH proximity, antibodies were pre-incubated with C3b-Acceptor beads (20 μg/ml) for 60 minutes at room temperature. Biotinylated fB(D24G/N260D) or fH were then added, and incubated for 60 minutes at room temperature. SA-Donor beads were then added (20 μg/ml) and the plate was incubated overnight at room temperature before reading. Plates were read on the BMG Pherastar (ex=680, em=520-620).

[4] = biological target: T1, human complement C3b protein; assay: AlphaScreen bead proximity, C3b-Acceptor beads pre-incubated with antibody, then biotinylated fH and SA-Donor beads; blocked ligand: fH [C]
[5] = biological target: T3, cynomolgus complement C3b protein (cynomolgus monkey (Macaca fascicularis)); assay: SPR (Biacore T100), C3b captured by anti-C3d antibody, IgG as analyte, 1:1 model
T3 construct: also called cyno C3b; cynoC3b

[6] = biological target: T1, human complement C3b protein; assay: as above
[7] = biological target: T1, human complement C3b protein; assay: cell-based or functional assay
[8] = biological target: T1, human complement C3b protein; assay: AlphaScreen bead proximity, C3b-Acceptor beads pre-incubated with antibody, then biotinylated fB(D24G/N260D) and SA-Donor beads; blocked ligand: fB [A]
Experimental: as §1, §2

[9] = biological target: T1, human complement C3b protein; assay: bead proximity assay, C3b-acceptor beads; competitor fP-donor beads
Experimental: as §2

[10] = biological target: T3, cynomolgus complement C3b protein; assay: SPR (Biacore), C3b captured by anti-C3d antibody, Fab as analyte
[11] = biological target: T1, human complement C3b protein; assay: as above
[12] = biological target: T3, cynomolgus complement C3b protein; assay: solution equilibrium titration (SET), ECL detection, Fab
[13] = biological target: T1, human complement C3b protein; assay: as above
[14] = biological target: T1, human complement C3b protein; assay: bead proximity assay, C3b-acceptor beads; competitor biotinylated fH
Experimental: as §2

[15] = biological target: T1, human complement C3b protein; assay: bead proximity assay, C3b-acceptor beads; competitor biotinylated fB(D24G/N260D)
Experimental: as §2

human C3d [16] = biological target: T2, human C3d; assay: cross reactivity, ELISA on C3d, anti-His detection
Experimental: In order to determine whether the anti-C3b antibodies described herein can bind to complement pathway components iC3b and C3c, the following steps were performed: Directly add iC3b(complement Technologies A115), C3d (complement Technologies A117), or C3c (complement Technologies A116), at 2 μg/ml in Carbonate Buffer onto Coat Maxisorp plate Nunc (442404) at 100 μl per well. Seal plates and incubate at 4° C. overnight. Aspirate plates and wash 3 times with PBS/0.5% Tween 20. Block plates with Diluent (PBS, 4% BSA Fraction V (Fisher ICN16006980), 0.1% Tween 20 (Sigma P1379), 0.1% Triton X-100 (Sigma P234729)) and incubate for 2 h at room temperature or overnight at 4° C. Then wash plates once with PBS/0.5% Tween 20. Dilute Fabs at 100 nM and subsequent dilutions (or higher concentration if needed) in diluent and plate 100 μl per well. Incubate at room temperature for 1 h. Wash plates 3 times with PBS/0.5% Tween 20. Add 100 μl/well of anti-Histidine-HRP monoclonal detection antibody at 1:400 in diluent and incubate at room temperature for 1 h. Then wash 4 times with PBS/0.5% Tween 20. Add 100 μl of TMB substrate (Pierce 34028) and incubate at room temperature for up to 5 min. Add 50 μl of Stop solution (2N Sulfuric Acid) to each well and read plate at 450 nm and correct for plastic reading at 570 nm.

[17] = biological target: T3, cynomolgus complement C3b protein; assay: cell-based or functional assay
[18] = biological target: T1, human complement C3b protein; assay: cell-based or functional assay; remark: listed apart in the source
human C5 = biological target: T4, human C5 (human, UniProt P01031 19-673; P01031 678-1676); assay: cross reactivity, capture ELISA with anti-C5 capture antibody, anti-His detection
T4 construct: Captured by an anti-C5 antibody in the ELISA
T4 sequence (P01031 19-673 limits assumed, chain 1 of 2): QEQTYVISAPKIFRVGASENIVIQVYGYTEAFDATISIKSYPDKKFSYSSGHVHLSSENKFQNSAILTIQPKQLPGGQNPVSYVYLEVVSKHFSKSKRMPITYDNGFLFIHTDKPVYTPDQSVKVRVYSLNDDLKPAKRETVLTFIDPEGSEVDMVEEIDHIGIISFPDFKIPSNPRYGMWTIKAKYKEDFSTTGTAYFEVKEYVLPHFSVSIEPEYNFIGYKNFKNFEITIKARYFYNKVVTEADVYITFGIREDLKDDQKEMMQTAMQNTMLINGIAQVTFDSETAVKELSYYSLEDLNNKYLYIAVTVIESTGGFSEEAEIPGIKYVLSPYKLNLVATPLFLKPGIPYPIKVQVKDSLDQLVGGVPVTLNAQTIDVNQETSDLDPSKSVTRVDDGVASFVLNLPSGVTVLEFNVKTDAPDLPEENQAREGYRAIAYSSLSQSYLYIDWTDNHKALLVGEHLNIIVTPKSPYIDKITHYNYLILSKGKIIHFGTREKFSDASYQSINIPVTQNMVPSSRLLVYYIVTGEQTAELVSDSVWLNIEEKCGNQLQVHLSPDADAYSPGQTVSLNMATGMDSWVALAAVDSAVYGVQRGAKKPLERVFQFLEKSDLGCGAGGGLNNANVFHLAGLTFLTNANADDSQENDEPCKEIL
T4 sequence (P01031 678-1676 limits assumed, chain 2 of 2): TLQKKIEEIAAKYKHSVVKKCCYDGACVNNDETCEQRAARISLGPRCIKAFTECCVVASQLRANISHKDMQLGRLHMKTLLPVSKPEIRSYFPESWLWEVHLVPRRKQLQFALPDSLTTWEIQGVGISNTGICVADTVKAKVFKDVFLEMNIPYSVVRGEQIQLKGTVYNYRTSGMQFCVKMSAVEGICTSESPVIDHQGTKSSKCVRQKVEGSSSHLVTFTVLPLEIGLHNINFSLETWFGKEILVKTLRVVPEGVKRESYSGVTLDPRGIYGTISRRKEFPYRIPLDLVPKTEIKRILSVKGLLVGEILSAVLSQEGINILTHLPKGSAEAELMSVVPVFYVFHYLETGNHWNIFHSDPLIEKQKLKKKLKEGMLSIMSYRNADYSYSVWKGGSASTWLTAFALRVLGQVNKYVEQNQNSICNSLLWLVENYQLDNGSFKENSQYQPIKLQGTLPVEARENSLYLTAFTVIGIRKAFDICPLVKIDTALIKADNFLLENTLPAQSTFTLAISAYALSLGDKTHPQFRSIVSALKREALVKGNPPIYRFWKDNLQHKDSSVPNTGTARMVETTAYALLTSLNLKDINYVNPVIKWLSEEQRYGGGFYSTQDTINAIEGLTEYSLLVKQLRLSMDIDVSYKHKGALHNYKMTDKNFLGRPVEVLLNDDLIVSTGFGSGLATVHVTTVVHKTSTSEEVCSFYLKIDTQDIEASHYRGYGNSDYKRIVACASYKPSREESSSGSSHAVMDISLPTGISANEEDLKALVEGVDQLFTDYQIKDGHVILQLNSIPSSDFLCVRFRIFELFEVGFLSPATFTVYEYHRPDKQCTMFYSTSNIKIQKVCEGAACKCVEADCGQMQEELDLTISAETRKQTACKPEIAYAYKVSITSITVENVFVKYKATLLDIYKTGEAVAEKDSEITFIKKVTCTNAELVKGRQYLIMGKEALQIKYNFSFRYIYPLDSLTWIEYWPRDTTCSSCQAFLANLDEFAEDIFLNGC

[19] = biological target: T1, human complement C3b protein; assay: ELISA, C3b captured on coated anti-C3d antibody, antibody titrated (axis: IgG concentration)
Experimental: The C3b antibodies were examined to determine whether they were selective for binding to C3b relative to the C3b precursor C3. Briefly, binding selectivity for C3b was determined by performing the following steps. Coat Maxisorp plate Nunc (442404) with anti-C3d rabbit monoclonal (abcam 17453) at 2 μg/ml in Carbonate Buffer at 100 μl/well. Seal plates and incubate at 4° C. overnight. Aspirate plates and wash 3 times with PBS/0.5% Tween 20. Block plates with Diluent (PBS, 4% BSA Fraction V (Fisher ICN16006980), 0.1% Tween 20 (Sigma P1379), 0.1% Triton X-100 (Sigma P234729)) and incubate for 2 h at room temperature or overnight at 4° C. Then wash plates once with PBS/0.5% Tween 20. Dilute purified C3b (complement technologies A114 lot 21) and C3 (complement technologies A113c) at 1 μg/ml in diluent and plate 100 μl per well. Incubate for 1 h at room temperature. Then wash 3 times with PBS/0.5% Tween 20.
Dilute Fabs at 100 nM and subsequent dilutions (or higher concentration) in diluent and plate 100 μl per well. Incubate at room temperature for 1 h. Wash plates 3 times with PBS/0.5% Tween 20. Add 100 μl/well of anti-Histidine-HRP monoclonal detection antibody at 1:400 in diluent and incubate at room temperature for 1 h. Then wash 4 times with PBS/0.5% Tween 20. […] Add 50 μl of Stop solution (2N Sulfuric Acid) to each well and read plate at 450 nm and correct for plastic reading at 570 nm.

[20] = biological target: T1, human complement C3b protein
[21] = biological target: T1, human complement C3b protein; assay: AlphaScreen bead proximity, C3b-Acceptor beads pre-incubated with antibody, then C3b-Donor beads; inhibition of C3b-C3b dimer formation; unit from the axis [Antibody] nM [D]
Experimental: as §1, §2

| binding result (human C3d [2]) | IC50 (read off the curve) [4] [nM] | Kd [5] [nM] | koff [5] [s⁻¹] | kon [5] [M⁻¹ s⁻¹] | Kd [6] [pM] | koff [6] [s⁻¹] | kon [6] [M⁻¹ s⁻¹] | MAC deposition on zymosan, IC50 [7] [nM] | IC50 (read off the curve) [8] [nM] | IC50 [9] [nM] | Kd [10] [nM] | Kd [11] [pM] | Kd [12] [nM] | Kd [13] [pM] | IC50 [14] [nM] | IC50 [15] [nM] | binding result (human C3d [16]) | Binder | hemolysis of rabbit red blood cells, 10% human or cynomolgus serum, IC50 [7] [nM] | inhibition of C3a and C5a generation during hemolysis, IC50 [7] [nM] | other results |
| --- | --- | --- | --- | --- | --- | --- | --- | --- | --- | --- | --- | --- | --- | --- | --- | --- | --- | --- | --- | --- | --- |
| no binding (tested: 100 nM) | ~0.02 | 0.202 | 0.00029 | 1.45e+06 | 2.88 | 1.02e-06 | 353000 | ≤ 5 | ~0.05 | – | – | – | – | – | – | – | – | MOR09675 IgG (antibody, V domains shown, Germlined human IgG1 with leucines 234 and 235 changed to alanines, kappa; also called antibody 9675) VH: EVQLVQSGAEVKKPGASVKVSCKASGYTFTGYYINWVRQAPGQGLEWMGIISPNQGTTGYAQKFQGRVTMTRDTSISTAYMELSSLRSEDTAVYYCARGNYDHLDYWGQGTLVTVSS VL: DIQMTQSPSSLSASVGDRVTITCRASQGISNYLNWYQQKPGKAPKLLIYDASTLQSGVPSRFSGSGSGTDFTLTISSLQPEDFATYYCQQDWHTLPVTFGQGTKVEIKR | ≤ 50 | ≤ 50 | fold binding selectivity for C3b over C3 [1]: > 1000 fold; EC50 [3]: 2360 nM |
| – | – | – | – | – | – | – | – | – | – | 300 | 0.092 | 3 | 0.1 | 4 | 0.1 | 0.1 | no binding | MOR09398 Fab (Fab, V domains shown, also called Fab 9398) VH: QVQLVESGGGLVQPGGSLRLSCAASGFTFSSYWMTWVRQAPGKGLEWVSSIKIKPDGYAASVKGRFTISRDNSKNTLYLQMNSLRAEDTAVYYCARLFYQYFARMDYWGQGTLVTVSS VL: DIQMTQSPSSLSASVGDRVTITCRASQDISNYLNWYQQKPGKAPKLLIYAASNLQSGVPSRFSGSGSGTDFTLTISSLQPEDFATYYCQQWDSFSPTFGQGTKVEIKR | – | – | C3b Dep (nM), cyno serum, IC50 [17]: 56 nM; HA (nM), 10% cyno serum, IC50 [17]: 86 nM; MAC Dep (nM), cyno serum, IC50 [17]: 5 nM; C3b Dep (nM), human serum, IC50 [18]: 13 nM; HA (nM), 10% human serum, IC50 [18]: 45 nM; MAC Dep (nM), human serum, IC50 [18]: 1 nM; binding result (human C5): no binding |
| no binding (tested: 100 nM) | ~0.04 | 0.0102 | 4.67e-05 | 4.57e+06 | 0.1 | 3.21e-07 | 3.21e+06 | ≤ 5 | ~0.05 | – | – | – | – | – | – | – | – | MOR09556 IgG (antibody, V domains shown, Germlined human IgG1 with leucines 234 and 235 changed to alanines, kappa; also called antibody 9556) VH: EVQLVESGGGLVQPGGSLRLSCAASGFTFSSYWMTWVRQAPGKGLEWVSSIKIKPDGYAASVKGRFTISRDNSKNTLYLQMNSLRAEDTAVYYCARLFYQYFARMDYWGQGTLVTVSS VL: DIQMTQSPSSLSASVGDRVTITCRASQDISNYLNWYQQKPGKAPKLLIYAASNLQSGVPSRFSGSGSGTDFTLTISSLQPEDFATYYCQQYDSYSPTFGQGTKVEIKR | ≤ 50 | ≤ 50 | EC50 (read off the curve) [19]: ~0.08 nM; fold binding selectivity for C3b over C3 [20]: 1000 fold; EC50 [21]: 300 nM |
| – | – | – | – | – | – | – | – | – | – | 300 | 0.089 | 7 | 0.12 | 2 | 0.1 | 0.1 | no binding | MOR09397 Fab (Fab, V domains shown, also called Fab 9397) VH: QVQLVESGGGLVQPGGSLRLSCAASGFTFSSYWMTWVRQAPGKGLEWVSSIKIKPDGYAASVKGRFTISRDNSKNTLYLQMNSLRAEDTAVYYCARLFYQYFARMDYWGQGTLVTVSS VL: DIQMTQSPSSLSASVGDRVTITCRASQDISNYLNWYQQKPGKAPKLLIYAASNLQSGVPSRFSGSGSGTDFTLTISSLQPEDFATYYCQQHDTFRPTFGQGTKVEIKR | – | – | C3b Dep (nM), cyno serum, IC50 [17]: 35 nM; HA (nM), 10% cyno serum, IC50 [17]: 59 nM; MAC Dep (nM), cyno serum, IC50 [17]: 7 nM; C3b Dep (nM), human serum, IC50 [18]: 13 nM; HA (nM), 10% human serum, IC50 [18]: 35 nM; MAC Dep (nM), human serum, IC50 [18]: 1 nM; binding result (human C5): no binding |
